Source: doi:10.1101/854497 (bioRxiv, 2020)
Several values for one entry are separate records, joined by “and”; a condition that tells them apart may be missing. Equal entries are not always repeated.

B1: His6-Pex17p (natural protein, yeast, UniProt P40155 1-199, looked up)
chain: MTSINSFPRNIDWPSNIGIKKIEGTNPTVNAIKGLLYNGGSIYAFLYFVIAMFVEPTLQKQYQQRNDFSLFVLLRLRRIIAQLQKRLVMTPVSSLGFNEQNNFVERSTQTSDDNIIREDNSHWAEMIYQLQNMKQELQYFNRSSGQPSESIDDFVFQIKMVTDQVELTDRSRAFSNKSRNIIQGIREIKGWFVNGQVPR
B2: StrepII-Pex14p(M51L) (natural protein, yeast, UniProt P53112 1-341, looked up)
chain: MSDVVSKDRKALFDSAVSFLKDESIKDAPLLKKIEFLKSKGLTEKEIEIALKEPKKDGIVGDEVSKKIGSTENRASQDMYLYEAMPPTLPHRDWKDYFVMATATAGLLYGAYEVTRRYVIPNILPEAKSKLEGDKKEIDDQFSKIDTVLNAIEAEQAEFRKKESETLKELSDTIAELKQALVQTTRSREKIEDEFRIVKLEVVNMQNTIDKFVSDNDGMQELNNIQKEMESLKSLMNNRMESGNAQDNRLFSISPNGIPGIDTIPSASEILAKMGMQEESDKEKENGSDANKDDNAVPAWKKAREQTIDSNASIPEWQKNTAANEISVPDWQNGQVEDSIP
B3: Pex14p_(119-341) (domain or fragment, yeast, UniProt P53112 119-341, looked up)
chain: VIPNILPEAKSKLEGDKKEIDDQFSKIDTVLNAIEAEQAEFRKKESETLKELSDTIAELKQALVQTTRSREKIEDEFRIVKLEVVNMQNTIDKFVSDNDGMQELNNIQKEMESLKSLMNNRMESGNAQDNRLFSISPNGIPGIDTIPSASEILAKMGMQEESDKEKENGSDANKDDNAVPAWKKAREQTIDSNASIPEWQKNTAANEISVPDWQNGQVEDSIP

How the values were obtained:
[1] = molecular target: B2; assay: cryo-EM structure
[2] = molecular target: the molecule itself; assay: native MS + SEC-MALS
[3] = molecular target: B1; assay: native MS
[4] = molecular target: the molecule itself; assay: cross-linking

Binder: B1
- binding result [1]: binds

Binder: B2
- stoichiometry N [2]: 3 copies
- stoichiometry N [3]: 3 Pex14p:Pex17p and 6 Pex14p:Pex17p and 4.5 Pex14p:Pex17p

Binder: B3
- stoichiometry N [4]: 3
